The assay deals with IL-12Rβ1/IL-12Rβ2 receptor complex (human, UniProt P42701). The experiment in a line: cell-based or functional assay.

B1: P36693671 (other)
chain 1: QVQLVQSGAEVKKPGASVKVSCKASGYTFTMNIIHWVRQAPGQGLEWMGWIHPGSGAIKYAQKLQGRVTMTTDTSTSTAYMELRSLRSDDTAVYYCARHGGTGRGAMDYWGQGTLVTVSSASTKGPSVFPLAPSSKSTSGGTAALGCLVKDYFPEPVTVSWNSGALTSGVHTFPAVLQSSGLYSLSSVVTVPSSSLGTQTYICNVNHKPSNTKVDKKVEPKSCDKGGGGSSGRSDNRGGGGSIWELKKDVYVVELDWYPDAPGEMVVLTCDTPEEDGITWTLDQSSEVLGSGKTLTIQVKEFGDAGQYTCHKGGEVLSHSLLLLHKKEDGIWSTDILKDQKEPKNKTFLRCEAKNYSGRFTCWWLTTISTDLTFSVKSSRGSSDPQGVTCGAATLSAERVRGDNKEYEYSVECQEDSAAPAAEESLPIEVMVDAVHKLKYENYTSSFFIRDIIKPDPPKNLQLKPLKNSRQVEVSWEYPDTWSTPHSYFSLTFSVQVQGQDQDEKKDRVFTDKTSATVICRKNASISVRAQDRYYSSSWSEWASVPCS
chain 2: EIVLTQSPGTLSLSPGERATLSCRASQSVSTSAYSYMHWYQQKPGQAPRLLIYLASNLESGIPDRFSGSGSGTDFTLTISRLEPEDFAVYYCQQSRELPYTFGQGTKLEIKRTVAAPSVFIFPPSDEQLKSGTASVVCLLNNFYPREAKVQWKVDNALQSGNSQESVTEQDSKDSTYSLSSTLTLSKADYEKHKVYACEVTHQGLSSPVTKSFNRGECGGGGSPLGLAGRNLPVATPDPGMFPCLHHSQNLLRAVSNMLQKARQTLEFYPCTSEEIDHEDITKDKTSTVEACLPLELTKNESSLNSRETSFITNGSCLASRKTSFMMALCLSSIYEDLKMYQVEFKTMNAKLLMDPKRQIFLDQNMLAVIDELMQALNFNSETVPQKSSLEEPDFYKTKIKLCILLHAFRIRAVTIDRVMSYLNAS
Regarding B1, the “IFN-γ secretion by NK92MI cells (ELISA, 48 hrs)” value is roughly 70 fold lower.

The values above are taken from patent US20230399371A1, “IL-12 COMPOSITIONS AND METHODS OF USE THEREOF” (published 2023).
